The source of these data is article PMC5519985 (Nature Communications, 2017).

One test has as its target IL-13Rα1 (Homo sapiens) (UniProt P78552). To be noted: cited from earlier work.
Test [1] deals with SNAPf-IL-13Rα1-TM (IL-13Rα1 truncated after the transmembrane domain). As to the kind of experiment: single molecule co-localization and co-tracking (dual-colour TIRF microscopy); ^DY547IL-4Rα-TM and ^DY647IL-13Rα1-TM reconstituted into polymer-supported membranes (PSM); ligand from 10 pM up to 50 μM, 5 min equilibration; equilibrium model fitted to the dimerization curves.
For the next test, the target named is HaloTag-IL-13Rα1 (UniProt P78552). Kind of test: particle image cross-correlation (PICCS) of single molecule localizations on live cells; HeLa cells co-expressing ^DY647IL-4Rα and ^TMRIL-13Rα1, without and with ligand; correlated fraction α; effective 2D constant by the law of mass action from α and the surface concentrations corrected for the degree of labelling.

The target in the next test is IL-4Rα (Homo sapiens) (UniProt P24394). The note with it: cited from earlier work.
For test [2], the target named is T1, IL-4Rα-EC/IL-4D binary complex on the SSM (UniProt P05112 25-153; P24394 26-232, H59Y | K84D, CoA-ATTO 488 on the ybbR-tag).
T1 construct: interleukin-4; IL-4Rα, ectodomain; Chains as m2 and m10; source: formed on the solid-supported membrane from m2 and m10; not shown: ybbR-tag, N-terminal, kept; His10, C-terminal, kept
T1 sequence (looked up) 1: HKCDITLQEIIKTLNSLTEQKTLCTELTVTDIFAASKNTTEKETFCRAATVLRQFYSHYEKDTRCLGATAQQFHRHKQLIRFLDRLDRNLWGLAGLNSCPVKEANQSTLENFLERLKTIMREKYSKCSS
T1 sequence (looked up) 2: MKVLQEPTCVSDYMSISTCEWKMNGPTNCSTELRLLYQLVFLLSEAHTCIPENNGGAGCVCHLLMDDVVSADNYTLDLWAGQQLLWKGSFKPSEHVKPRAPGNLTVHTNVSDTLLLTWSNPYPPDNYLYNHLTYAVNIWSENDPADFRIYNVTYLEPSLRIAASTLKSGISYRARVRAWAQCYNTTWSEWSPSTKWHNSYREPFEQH
Kind of test: TIRFS-RIf (total internal reflection fluorescence spectroscopy with reflectance interference); SSM with IL-4Rα-EC and IL-13Rα1-EC; dissociation of ^AT488IL-4D while free IL-13Rα1-EC is blocked by injection of IL-13 (Supplementary Fig. 7). The note with it: both partners purified.

Usually Kd stands for the equilibrium constant for the complex coming apart. As for IL-4 (from UniProt P05112), the Kd with IL-13Rα1 (Homo sapiens) was 2500 nM.

In test [1], “IL-4/^DY547IL-4Rα-TM binary complex in the PSM (from UniProt P05112 25-153)” had a 2D equilibrium dissociation constant (molecules μm^−2) of 1.6.

In the test with HaloTag-IL-13Rα1, “IL-4/^DY647IL-4Rα binary complex in the plasma membrane of HeLa cells (from UniProt P05112 25-153; P24394 26-825)” came in with a correlated fraction α (PICCS) of 11% and an effective 2D equilibrium dissociation constant (molecules μm^−2) of 0.1.

As to “IL-13/IL-13Rα1-EC complex (from UniProt P35225)”, the Kd with IL-4Rα (Homo sapiens) was 15 nM.

B1: IL-13Rα1-EC (ectodomain of IL-13Rα1 with C-terminal decahistidine tag) (domain or fragment, UniProt P78552 22-343, looked up)
chain: GGGGAAPTETQPPVTNLSVSVENLCTVIWTWNPPEGASSNCSLWYFSHFGDKQDKKIAPETRRSIEVPLNERICLQVGSQCSTNESEKPSILVEKCISPPEGDPESAVTELQCIWHNLSYMKCSWLPGRNTSPDTNYTLYYWHRSLEKIHQCENIFREGQYFGCSFDLTKVKDSSFEQHSVQIMVKDNAGKIKPSFNIVPLTSRVKPDPPHIKNLSFHNDDLYVQWENPQNFISRCLFYEVEVNNSQTETHNVFYVQEAKCENPEFERNVENTSCFMVPGVLPDTLNTVRIRVKTNKLCYEDDKLWSNWSQEMSIGKKRNST
modifications: CoA-Alexa Fluor 568 on the ybbR-tag in the FRET experiments (^AF568IL-13Rα1-EC); else unlabelled
On to B1, for which the binding result in test [2] is recorded as “binds”.
